According to paper doi:10.1101/609503 (bioRxiv, 2019):

T1: PBP1A (E. coli, UniProt P02918 1-850, NT647 RED-NHS dye on amines (fl-PBP1A))
T1 sequence (looked up): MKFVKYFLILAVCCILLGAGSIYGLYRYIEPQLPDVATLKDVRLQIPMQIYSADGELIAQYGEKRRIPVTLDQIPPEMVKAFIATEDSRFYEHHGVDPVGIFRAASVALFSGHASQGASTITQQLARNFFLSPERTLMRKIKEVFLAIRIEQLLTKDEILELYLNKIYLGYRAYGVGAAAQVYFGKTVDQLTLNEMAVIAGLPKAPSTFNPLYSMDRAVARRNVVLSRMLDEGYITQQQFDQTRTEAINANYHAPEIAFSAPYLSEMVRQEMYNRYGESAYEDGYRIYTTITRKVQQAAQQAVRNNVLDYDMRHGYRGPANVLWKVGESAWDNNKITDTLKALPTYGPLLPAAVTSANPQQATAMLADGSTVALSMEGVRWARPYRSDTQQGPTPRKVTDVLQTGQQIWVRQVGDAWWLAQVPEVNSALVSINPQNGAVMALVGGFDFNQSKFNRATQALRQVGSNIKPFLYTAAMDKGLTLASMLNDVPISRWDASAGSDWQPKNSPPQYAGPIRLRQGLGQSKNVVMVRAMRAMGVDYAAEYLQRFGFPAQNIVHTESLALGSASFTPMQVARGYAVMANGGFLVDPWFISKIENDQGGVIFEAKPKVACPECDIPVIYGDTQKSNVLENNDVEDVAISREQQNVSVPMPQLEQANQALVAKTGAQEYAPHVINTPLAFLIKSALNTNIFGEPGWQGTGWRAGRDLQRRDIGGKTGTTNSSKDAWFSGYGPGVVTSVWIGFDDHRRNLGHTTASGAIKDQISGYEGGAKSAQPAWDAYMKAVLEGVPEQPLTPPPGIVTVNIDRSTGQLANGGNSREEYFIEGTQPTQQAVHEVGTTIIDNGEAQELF

T2: MepM (E. coli, UniProt P0AFS9 41-440)
T2 sequence (looked up): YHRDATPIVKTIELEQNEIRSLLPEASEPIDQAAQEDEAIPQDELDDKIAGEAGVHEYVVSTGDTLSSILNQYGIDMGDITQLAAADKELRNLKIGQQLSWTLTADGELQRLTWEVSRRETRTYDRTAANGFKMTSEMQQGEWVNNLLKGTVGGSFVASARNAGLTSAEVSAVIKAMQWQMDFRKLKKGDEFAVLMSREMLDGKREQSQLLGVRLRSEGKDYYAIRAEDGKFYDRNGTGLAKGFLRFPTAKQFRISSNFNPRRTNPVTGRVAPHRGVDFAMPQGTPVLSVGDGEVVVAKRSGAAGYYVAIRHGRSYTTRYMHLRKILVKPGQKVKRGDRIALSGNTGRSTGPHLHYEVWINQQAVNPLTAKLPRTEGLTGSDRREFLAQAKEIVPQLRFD

B1: LpoA (natural protein, E. coli, UniProt P45464 27-678, looked up)
chain: CGTHTPDQSTAYMQGTAQADSAFYLQQMQQSSDDTRINWQLLAIRALVKEGKTGQAVELFNQLPQELNDAQRREKTLLAVEIKLAQKDFAGAQNLLAKITPADLEQNQQARYWQAKIDASQGRPSIDLLRALIAQEPLLGAKEKQQNIDATWQALSSMTQEQANTLVINADENILQGWLDLQRVWFDNRNDPDMMKAGIADWQKRYPNNPGAKMLPTQLVNVKAFKPASTNKIALLLPLNGQAAVFGRTIQQGFEAAKNIGTQPVAAQVAAAPAADVAEQPQPQTVDGVASPAQASVSDLTGEQPAAQPVPVSAPATSTAAVSAPANPSAELKIYDTSSQPLSQILSQVQQDGASIVVGPLLKNNVEELLKSNTPLNVLALNQPENIENRVNICYFALSPEDEARDAARHIRDQGKQAPLVLIPRSSLGDRVANAFAQEWQKLGGGTVLQQKFGSTSELRAGVNGGSGIALTGSPITLRATTDSGMTTNNPTLQTTPTDDQFTNNGGRVDAVYIVATPGEIAFIKPMIAMRNGSQSGATLYASSRSAQGTAGPDFRLEMEGLQYSEIPMLAGGNLPLMQQALSAVNNDYSLARMYAMGVDAWSLANHFSQMRQVQGFEINGNTGSLTANPDCVINRNLSWLQYQQGQVVPVS
modifications: NT647 RED-Maleimide dye on cysteines where used as the labelled partner (fl-LpoA)
B2: MepS(C68A) (enzyme, E. coli, UniProt P0AFV4 27-188, looked up)
chain: CSANNTAKNMHPETRAVGSETSSLQASQDEFENLVRNVDVKSRIMDQYADWKGVRYRLGGSTKKGIDASGFVQRTFREQFGLELPRSTYEQQEMGKSVSRSNLRTGDLVLFRAGSTGRHVGIYIGNNQFVHASTSSGVIISSMNEPYWKKRYNEARRVLSRS
B3: NlpI (soluble version, residues 19-294) (natural protein, E. coli, UniProt P0AFB1 19-294, looked up)
chain: CSNTSWRKSEVLAVPLQPTLQQEVILARMEQILASRALTDDERAQLLYERGVLYDSLGLRALARNDFSQALAIRPDMPEVFNYLGIYLTQAGNFDAAYEAFDSVLELDPTYNYAHLNRGIALYYGGRDKLAQDDLLAFYQDDPNDPFRSLWLYLAEQKLDEKQAKEVLKQHFEKSDKEQWGWNIVEFYLGNISEQTLMERLKADATDNTSLAEHLSETNFYLGKYYLSLGDLDSATALFKLAVANNVHNFVEHRYALLELSLLGQDQDDLAESDQQ
modifications: NT647 RED-NHS dye on amines where used as the labelled partner (fl-NlpI)
B4: tagless NlpI (natural protein)
chain: B3 chain
B5: PBP7 (enzyme, E. coli, UniProt P0AFI5 26-310, looked up)
chain: KTAAATTASQPEIASGSAMIVDLNTNKVIYSNHPDLVRPIASISKLMTAMVVLDARLPLDEKLKVDISQTPEMKGVYSRVRLNSEISRKDMLLLALMSSENRAAASLAHHYPGGYKAFIKAMNAKAKSLGMNNTRFVEPTGLSVHNVSTARDLTKLLIASKQYPLIGQLSTTREDMATFSNPTYTLPFRNTNHLVYRDNWNIQLTKTGFTNAAGHCLVMRTVINNKPVALVVMDAFGKYTHFADASRLRTWIETGKVMPVPAAALSYKKQKAAQMAAAGQTAQND
modifications: NT647 RED-NHS dye on amines where used as the labelled partner (fl-PBP7)
B6: His-PBP7 (enzyme, E. coli, UniProt P0AFI5 26-310, looked up)
chain: B5 chain
B7: PBP4 (native) (enzyme, E. coli, UniProt P24228 21-477, looked up)
chain: ANVDEYITQLPAGANLALMVQKVGASAPAIDYHSQQMALPASTQKVITALAALIQLGPDFRFTTTLETKGNVENGVLKGDLVARFGADPTLKRQDIRNMVATLKKSGVNQIDGNVLIDTSIFASHDKAPGWPWNDMTQCFSAPPAAAIVDRNCFSVSLYSAPKPGDMAFIRVASYYPVTMFSQVRTLPRGSAEAQYCELDVVPGDLNRFTLTGCLPQRSEPLPLAFAVQDGASYAGAILKDELKQAGITWSGTLLRQTQVNEPGTVVASKQSAPLHDLLKIMLKKSDNMIADTVFRMIGHARFNVPGTWRAGSDAVRQILRQQAGVDIGNTIIADGSGLSRHNLIAPATMMQVLQYIAQHDNELNFISMLPLAGYDGSLQYRAGLHQAGVDGKVSAKTGSLQGVYNLAGFITTASGQRMAFVQYLSGYAVEPADQRNRRIPLVRFESRLYKDIYQNN

Legend:
[1] = target: preformed NlpI-PBP4 complex (E. coli, UniProt P0AFB1 19-294; P24228 21-477); assay: MST
PBP1A = target: T1, PBP1A; assay: MST
MST = target: the molecule itself; assay: MST
PBP4 (native) [2] = target: B7; assay: MST
MepM = target: T2, MepM; assay: MST
AUC = target: the molecule itself; assay: AUC
His-PBP7 = target: B6; assay: pull-down
PBP4 (native) [3] = target: B7; assay: pull-down

## B1
[1]
  binding result: binds

## B2
PBP1A
  Kd: 91 nM

## B3
MST
  Kd: 126 nM
PBP4 (native) [2]
  Kd: 177 nM
MepM
  Kd: 152 nM
AUC
  stoichiometry N: 2

## B4
His-PBP7
  binding result: binds

## B5
PBP1A
  Kd: 101 nM
PBP4 (native) [2]
  binding result: binds

## B6
PBP4 (native) [3]
  binding result: binds

## B7
PBP1A
  Kd: 106 nM
